T1: GST-NAC1(1-199) (Arabidopsis thaliana, UniProt Q84TE6 1-199)
T1 sequence: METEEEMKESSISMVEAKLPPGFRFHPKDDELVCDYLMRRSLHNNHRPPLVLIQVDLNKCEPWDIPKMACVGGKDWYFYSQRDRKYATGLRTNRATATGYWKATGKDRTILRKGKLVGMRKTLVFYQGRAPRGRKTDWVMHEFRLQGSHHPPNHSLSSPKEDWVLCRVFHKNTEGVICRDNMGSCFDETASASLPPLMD


Target: T1, GST-NAC1(1-199)
Test: EMSA; LightShift Chemiluminescent EMSA kit (Thermo 20148), manufacturer's instructions; buffer, salt, pH and temperature not stated
Conditions: protein: recombinant, tags: GST (N-terminal, pGEX-4T-1), chain copies: 2, label: biotin

Row | Binder | binding result (printed strands differ by one nt: F1 has CCCGTT where R1 complement gives CCGTT (1-nt bulge or typo), P1 = F1/R1 by number) | binding result (blunt, P2 = F2/R2 by number)
1 | E2Fa promoter probe P1 (E2Fa-BIO-F1/R1) (dsDNA) DNA 1: CGTGAAATGCCAGTGGTCTATGATCGGATTCTCTGTTTCCCGTTCTCCTTCTTTTTTTGGGCCTTAAATCCGTTT DNA 2: AAACGGATTTAAGGCCCAAAAAAAGAAGGAGAACGGAAACAGAGAATCCGATCATAGACCACTGGCATTTCACG | binds | 
2 | E2Fa promoter probe P2 (E2Fa-BIO-F2/R2) (dsDNA) DNA 1: CGTGTAGAGTTGCGATTTGCAGAGAATTGTGATTCTACAATTGGAGGCAAGATGATGAATGTGTGAACTGATTAGCGTAA DNA 2: TTACGCTAATCAGTTCACACATTCATCATCTTGCCTCCAATTGTAGAATCACAATTCTCTGCAAATCGCAACTCTACACG |  | binds

Reference: PMC9603599, “NAC1 Maintains Root Meristem Activity by Repressing the Transcription of E2Fa in Arabidopsis”
